Numbering of substitutions follows the chain as printed. Names and notes keep the numbering of the source. Values joined by “and” are separate entries in the source; they are usually repeats but may differ in a detail not shown here. Identical values can stand only once.
B1: human alsin VPS9 WT (C1551S/C1558S/C1647S) (domain or fragment, UniProt Q96Q42 1513-1657, looked up)
chain: KQPDIALLGFLGVQRKFWPATLSILGESKKVLPTTKDASFASAVESLQQISTTFTPSDKLKVIQQTFEEISQSVLASLHEDFLWSMDDLFPVFLYVVLRARIRNLGSEVHLIEDLMDPYLQHGEQGIMFTTLKASYYQIQREKLN
notes: alsin, human, VPS9 domain, residues 1513-1657 of UniProt Q96Q42, with three Cys to Ser changes in the construct called WT; Cloned in pET28b between NdeI and EcoRI; No cleavage of the tag is described; The N-terminal position is read from the forward primer (thrombin site before the ATG); The printed monomer mass of 16.6 kDa fits the domain without the tag; also called wild-type VPS9 domain
B2: human alsin VPS9 R1611W mutant (domain or fragment, UniProt Q96Q42 1513-1657, looked up)
chain: B1 chain with R99W
notes: alsin, human, VPS9 domain, residues 1513-1657 of UniProt Q96Q42; The pathological R1611W mutation was inserted by site-directed mutagenesis into the VPS9 WT (C1551S/C1558S/C1647S) construct; Same construct and tag as m1 with R1611W added; also called VPS R1611W

Target: the molecule itself
Experiment: SEC; Superdex 200 Increase 10/300 GL, 50 mM potassium phosphate pH 8.0, 150 mM NaCl, 0.5 mL/min, room temperature; 310 ug VPS9 WT or 270 ug VPS9 R1611W injected; apparent molecular weights from column calibration

Protein | stoichiometry N
B1 | 4
B2 | 4 and 6

— publication PMC12631311, “Molecular Insights into IAHSP: Influence of the R1611W Mutation on the VPS9 Domain of Alsin” (ACS Omega, 2025)
